In patent US20190194276A1 (MAYO FOUNDATION FOR MEDICAL EDUCATION AND RESEARCH, published 2019):
Numbering of substitutions follows the chain as printed. Numbers in names are those of the source. Ends that are not written are not given here.

Tests used:
endogenous IQGAP1 [1] = target: T1, endogenous IQGAP1 (human, UniProt P46940 2-1657); assay: GST pull-down from DU145 whole cell lysate, Western blot
T1 construct: also called cellular IQGAP1

endogenous IQGAP1 [2] = target: T1, endogenous IQGAP1; assay: co-IP with anti-Flag from LNCaP cells expressing SFB-tagged peptides, Western blot
endogenous IQGAP1 [3] = target: T1, endogenous IQGAP1; assay: co-IP with anti-Flag from transfected LNCaP cells, Western blot
endogenous IQGAP1 [4] = target: T1, endogenous IQGAP1; assay: co-IP with anti-IQGAP1 from LNCaP cells transfected with HA-FOXO4, Western blot
endogenous IQGAP1 [5] = target: T1, endogenous IQGAP1; assay: co-IP with anti-IQGAP1 from LNCaP cells transfected with HA-FOXO3, Western blot
endogenous IQGAP1 [6] = target: T1, endogenous IQGAP1; assay: TAP of SFB-FOXO1 from 293T cells, LC-MS/MS

T1 sequence (P46940 2-1657 limits assumed): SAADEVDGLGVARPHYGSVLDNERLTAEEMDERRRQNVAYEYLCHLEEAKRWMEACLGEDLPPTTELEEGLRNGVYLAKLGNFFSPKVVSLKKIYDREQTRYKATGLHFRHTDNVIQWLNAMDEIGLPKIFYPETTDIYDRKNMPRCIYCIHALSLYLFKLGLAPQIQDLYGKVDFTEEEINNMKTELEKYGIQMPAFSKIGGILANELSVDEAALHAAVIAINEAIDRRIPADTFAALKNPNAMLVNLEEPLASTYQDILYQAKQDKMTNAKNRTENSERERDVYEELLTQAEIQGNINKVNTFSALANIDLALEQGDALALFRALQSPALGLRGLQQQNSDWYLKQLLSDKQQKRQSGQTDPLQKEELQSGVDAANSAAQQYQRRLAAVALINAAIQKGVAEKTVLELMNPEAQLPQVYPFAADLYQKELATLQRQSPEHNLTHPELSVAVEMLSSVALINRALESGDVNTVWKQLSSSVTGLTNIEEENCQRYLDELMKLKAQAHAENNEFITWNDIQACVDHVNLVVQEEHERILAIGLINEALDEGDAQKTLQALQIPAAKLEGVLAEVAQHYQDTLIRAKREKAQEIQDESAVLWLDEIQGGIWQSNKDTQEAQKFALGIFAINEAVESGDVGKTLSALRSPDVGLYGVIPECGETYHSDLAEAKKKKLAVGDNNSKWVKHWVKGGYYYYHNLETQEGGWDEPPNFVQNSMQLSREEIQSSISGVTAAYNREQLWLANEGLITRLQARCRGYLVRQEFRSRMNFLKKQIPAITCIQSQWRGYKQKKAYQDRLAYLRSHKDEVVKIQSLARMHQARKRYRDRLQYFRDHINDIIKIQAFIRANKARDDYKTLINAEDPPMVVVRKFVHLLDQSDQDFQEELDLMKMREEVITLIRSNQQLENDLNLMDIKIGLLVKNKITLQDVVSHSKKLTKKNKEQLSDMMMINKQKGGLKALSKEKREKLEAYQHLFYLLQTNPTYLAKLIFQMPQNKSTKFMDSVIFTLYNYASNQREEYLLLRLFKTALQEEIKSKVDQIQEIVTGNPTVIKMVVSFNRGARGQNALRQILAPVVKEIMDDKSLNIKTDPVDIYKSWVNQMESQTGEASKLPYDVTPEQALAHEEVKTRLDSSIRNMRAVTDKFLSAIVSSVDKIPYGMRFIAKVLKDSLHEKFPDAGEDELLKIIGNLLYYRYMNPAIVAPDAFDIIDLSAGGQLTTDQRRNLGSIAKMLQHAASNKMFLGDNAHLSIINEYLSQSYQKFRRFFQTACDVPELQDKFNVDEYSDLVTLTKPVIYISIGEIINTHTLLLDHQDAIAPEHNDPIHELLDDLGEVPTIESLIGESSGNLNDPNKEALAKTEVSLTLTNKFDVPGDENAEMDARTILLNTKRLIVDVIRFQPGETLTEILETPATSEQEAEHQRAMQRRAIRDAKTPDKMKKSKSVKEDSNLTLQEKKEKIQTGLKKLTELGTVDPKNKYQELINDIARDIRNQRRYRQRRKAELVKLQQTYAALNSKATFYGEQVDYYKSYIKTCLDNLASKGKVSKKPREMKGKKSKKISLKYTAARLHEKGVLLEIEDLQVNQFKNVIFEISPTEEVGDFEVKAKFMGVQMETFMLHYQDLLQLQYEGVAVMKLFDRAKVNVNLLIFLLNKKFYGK

B1: GST-FOXO1-1 (amino acids 1-167) (other, human, UniProt Q12778 1-167, looked up, not shown: a dimerising Fc or GST)
chain: MAEAPQVVEIDPDFEPLPRPRSCTWPLPRPEFSQSNSATSSPAPSGSAAANPDAAAGLPSASAAAVSADFMSNLSLLEESEDFPQAPGSVAAAVAAAAAAAATGGLCGDFQGPEAGCLHPAPPQPPPPGPLSQHPPVPPAAAGPLAGQPRKSSSSRRNAWGNLSYAD
notes: range 1-167
Question: Does B1 bind (endogenous IQGAP1 [1])?
Answer: no binding

B2: SFB-FOXO1-IQBP S319 (peptide, not shown: small tags and cut ends)
peptide: NDDFDNWSTFRPRTSSNASTISGRLSPIMT
modifications: also: SFB tag, position not given here
notes: Expressed in LNCaP cells; also called wild-type counterpart
Question: Does B2 bind (endogenous IQGAP1 [2])?
Answer: binds

Question: Does NDDFDNWSTFRPRTSDNASTISGRLSPIMT (peptide, not shown: small tags and cut ends, also: SFB tag, position not given here, Expressed in LNCaP cells) [SFB-FOXO1-IQBP S319D] bind (endogenous IQGAP1 [2])?
Answer: binds

B3: SFB-FOXO1-IQBP S319E (peptide, not shown: small tags and cut ends)
peptide: B2 peptide with S16E
modifications: also: SFB tag, position not given here
notes: Expressed in LNCaP cells; also called Flag-tagged FOXO1 IQBP(SE)
Question: Does B3 bind (endogenous IQGAP1 [2])?
Answer: binds

B4: Flag-FOXO1-537 (other, human, UniProt Q12778 1-537, looked up)
chain: MAEAPQVVEIDPDFEPLPRPRSCTWPLPRPEFSQSNSATSSPAPSGSAAANPDAAAGLPSASAAAVSADFMSNLSLLEESEDFPQAPGSVAAAVAAAAAAAATGGLCGDFQGPEAGCLHPAPPQPPPPGPLSQHPPVPPAAAGPLAGQPRKSSSSRRNAWGNLSYADLITKAIESSAEKRLTLSQIYEWMVKSVPYFKDKGDSNSSAGWKNSIRRNLSLHSKFIRVQNEGTGKSSWWMLNPEGGKSGKSPRRRAASMDNNSKFAKSRSRAAKKKASLQSGQEGAGDSPGSQFSKWPASPGSHSNDDFDNWSTFRPRTSSNASTISGRLSPIMTEQDDLGEGDVHSMVYPPSAAKMASTLPSLSEISNPENMENLLDNLNLLSSPTSLTVSTQSSPGTMMQQTPCYSFAPPNTSLNSPSPNYQKYTYGQSSMSPLPQMPIQTLQDNKSSYGGMSQYNCAPGLLKELLTSDSPPHNDIMTPVDPGVAQPNSRVLGQNVMMGPNSVMSTYGSQASHNKMMNPSSHTHPGHAQQTSAVNGR
notes: Transcription-deficient mutant that can be phosphorylated by AKT; not shown: Flag tag
Question: Does B4 bind (endogenous IQGAP1 [3])?
Answer: binds

B5: HA-FOXO4 (other, UniProt P98177 1-505, looked up)
chain: MDPGNENSATEAAAIIDLDPDFEPQSRPRSCTWPLPRPEIANQPSEPPEVEPDLGEKVHTEGRSEPILLPSRLPEPAGGPQPGILGAVTGPRKGGSRRNAWGNQSYAELISQAIESAPEKRLTLAQIYEWMVRTVPYFKDKGDSNSSAGWKNSIRHNLSLHSKFIKVHNEATGKSSWWMLNPEGGKSGKAPRRRAASMDSSSKLLRGRSKAPKKKPSVLPAPPEGATPTSPVGHFAKWSGSPCSRNREEADMWTTFRPRSSSNASSVSTRLSPLRPESEVLAEEIPASVSSYAGGVPPTLNEGLELLDGLNLTSSHSLLSRSGLSGFSLQHPGVTGPLHTYSSSLFSPAEGPLSAGEGCFSSSQALEALLTSDTPPPPADVLMTQVDPILSQAPTLLLLGGLPSSSKLATGVGLCPKPLEAPGPSSLVPTLSMIAPPPVMASAPIPKALGTPVLTPPTEAASQDRMPQDLDLDMYMENLECDMDNIISDLMDEGEGLDFNFEPDP
notes: Expressed in LNCaP cells; not shown: HA tag
Question: Does B5 bind (endogenous IQGAP1 [4])?
Answer: binds

B6: GST-FOXO1-2 (amino acids 149-267) (other, human, UniProt Q12778 149-267, looked up, not shown: a dimerising Fc or GST)
chain: PRKSSSSRRNAWGNLSYADLITKAIESSAEKRLTLSQIYEWMVKSVPYFKDKGDSNSSAGWKNSIRHNLSLHSKFIRVQNEGTGKSSWWMLNPEGGKSGKSPRRRAASMDNNSKFAKSR
notes: range 149-267
Question: Does B6 bind (endogenous IQGAP1 [1])?
Answer: no binding

B7: HA-FOXO3 (other, UniProt O43524 1-673, looked up)
chain: MAEAPASPAPLSPLEVELDPEFEPQSRPRSCTWPLQRPELQASPAKPSGETAADSMIPEEEDDEDDEDGGGRAGSAMAIGGGGGSGTLGSGLLLEDSARVLAPGGQDPGSGPATAAGGLSGGTQALLQPQQPLPPPQPGAAGGSGQPRKCSSRRNAWGNLSYADLITRAIESSPDKRLTLSQIYEWMVRCVPYFKDKGDSNSSAGWKNSIRHNLSLHSRFMRVQNEGTGKSSWWIINPDGGKSGKAPRRRAVSMDNSNKYTKSRGRAAKKKAALQTAPESADDSPSQLSKWPGSPTSRSSDELDAWTDFRSRTNSNASTVSGRLSPIMASTELDEVQDDDAPLSPMLYSSSASLSPSVSKPCTVELPRLTDMAGTMNLNDGLTENLMDDLLDNITLPPSQPSPTGGLMQRSSSFPYTTKGSGLGSPTSSFNSTVFGPSSLNSLRQSPMQTIQENKPATFSSMSHYGNQTLQDLLTSDSLSHSDVMMTQSDPLMSQASTAVSAQNSRRNVMLRNDPMMSFAAQPNQGSLVNQNLLHHQHQTQGALGGSRALSNSVSNMGLSESSSLGSAKHQQQSPVSQSMQTLSDSLSGSSLYSTSANLPVMGHEKFPSDLDLDMFNGSLECDMESIIRSELMDADGLDFNFDSLISTQNVVGLNVGNFTGAKQASSQSWVPG
notes: as for B5
Question: Does B7 bind (endogenous IQGAP1 [5])?
Answer: binds

B8: GST-FOXO1-5 (amino acids 488-655) (other, human, UniProt Q12778 488-655, looked up, not shown: a dimerising Fc or GST)
chain: NSRVLGQNVMMGPNSVMSTYGSQASHNKMMNPSSHTHPGHAQQTSAVNGRPLPHTVSTMPHTSGMNRLTQVKTPVQVPLPHPMQMSALGGYSSVSSCNGYGRMGLLHQEKLPSDLDGMFIERLDCDMESIIRNDLMDGDTLDFNFDNVLPNQSFPHSVKTTTHSWVSG
notes: range 488-655
Question: Does B8 bind (endogenous IQGAP1 [1])?
Answer: no binding

B9: GST-FOXO1-4 (amino acids 354-503) (other, human, UniProt Q12778 354-503, looked up, not shown: a dimerising Fc or GST)
chain: KMASTLPSLSEISNPENMENLLDNLNLLSSPTSLTVSTQSSPGTMMQQTPCYSFAPPNTSLNSPSPNYQKYTYGQSSMSPLPQMPIQTLQDNKSSYGGMSQYNCAPGLLKELLTSDSPPHNDIMTPVDPGVAQPNSRVLGQNVMMGPNSV
notes: range 354-503
Question: Does B9 bind (endogenous IQGAP1 [1])?
Answer: no binding

B10: Flag-FOXO1-A3 (T24A/S256A/S319A) (other, human, UniProt Q12778 1-655, looked up)
chain: MAEAPQVVEIDPDFEPLPRPRSCAWPLPRPEFSQSNSATSSPAPSGSAAANPDAAAGLPSASAAAVSADFMSNLSLLEESEDFPQAPGSVAAAVAAAAAAAATGGLCGDFQGPEAGCLHPAPPQPPPPGPLSQHPPVPPAAAGPLAGQPRKSSSSRRNAWGNLSYADLITKAIESSAEKRLTLSQIYEWMVKSVPYFKDKGDSNSSAGWKNSIRHNLSLHSKFIRVQNEGTGKSSWWMLNPEGGKSGKSPRRRAAAMDNNSKFAKSRSRAAKKKASLQSGQEGAGDSPGSQFSKWPASPGSHSNDDFDNWSTFRPRTSANASTISGRLSPIMTEQDDLGEGDVHSMVYPPSAAKMASTLPSLSEISNPENMENLLDNLNLLSSPTSLTVSTQSSPGTMMQQTPCYSFAPPNTSLNSPSPNYQKYTYGQSSMSPLPQMPIQTLQDNKSSYGGMSQYNCAPGLLKELLTSDSPPHNDIMTPVDPGVAQPNSRVLGQNVMMGPNSVMSTYGSQASHNKMMNPSSHTHPGHAQQTSAVNGRPLPHTVSTMPHTSGMNRLTQVKTPVQVPLPHPMQMSALGGYSSVSSCNGYGRMGLLHQEKLPSDLDGMFIERLDCDMESIIRNDLMDGDTLDFNFDNVLPNQSFPHSVKTTTHSWVSG
notes: Expressed in LNCaP cells; also called triple mutant; not shown: Flag tag
Question: Does B10 bind (endogenous IQGAP1 [3])?
Answer: no binding

B11: SFB-tagged FOXO1 (other, human, UniProt Q12778 1-655, looked up)
chain: B10 chain with A24T, A256S, A319S
notes: also called SFB-FOXO1; not shown: about 12 kDa, 119 amino acid
Question: Does B11 bind (endogenous IQGAP1 [6])?
Answer: binds

B12: Flag-FOXO1-T24A (other, human, UniProt Q12778 1-655, looked up)
chain: B10 chain with A256S, A319S
notes: Expressed in LNCaP cells; not shown: Flag tag
Question: Does B12 bind (endogenous IQGAP1 [3])?
Answer: binds

B13: Flag-FOXO1-S319A (other, human, UniProt Q12778 1-655, looked up)
chain: B10 chain with A24T, A256S
notes: as for B12
Question: Does B13 bind (endogenous IQGAP1 [3])?
Answer: no binding

B14: Flag-FOXO1-S256A (other, human, UniProt Q12778 1-655, looked up)
chain: B10 chain with A24T, A319S
notes: as for B12
Question: Does B14 bind (endogenous IQGAP1 [3])?
Answer: binds
